Reference: patent publication US10087225B2, “Formulation of MK2 inhibitor peptides” (MOERAE MATRIX, INC., priority 2015, dated 2018)

Assays:
Assay in all cases: Kinase Profiling Assay
Assay type in all cases: biochemical
Details in all cases: for % activity: 100 μM
Ab1(T315I)(h) = Ab1(T315I)(h) (Homo sapiens, UniProt P00519, T315I)
Met(Y1248D)(h) = Met(Y1248D)(h) (Homo sapiens, UniProt P08581, Y1230D)
EphB1(h) = biological target: T1, EphB1(h) (Homo sapiens, UniProt P54762)
T1 sequence (P54762 18-984): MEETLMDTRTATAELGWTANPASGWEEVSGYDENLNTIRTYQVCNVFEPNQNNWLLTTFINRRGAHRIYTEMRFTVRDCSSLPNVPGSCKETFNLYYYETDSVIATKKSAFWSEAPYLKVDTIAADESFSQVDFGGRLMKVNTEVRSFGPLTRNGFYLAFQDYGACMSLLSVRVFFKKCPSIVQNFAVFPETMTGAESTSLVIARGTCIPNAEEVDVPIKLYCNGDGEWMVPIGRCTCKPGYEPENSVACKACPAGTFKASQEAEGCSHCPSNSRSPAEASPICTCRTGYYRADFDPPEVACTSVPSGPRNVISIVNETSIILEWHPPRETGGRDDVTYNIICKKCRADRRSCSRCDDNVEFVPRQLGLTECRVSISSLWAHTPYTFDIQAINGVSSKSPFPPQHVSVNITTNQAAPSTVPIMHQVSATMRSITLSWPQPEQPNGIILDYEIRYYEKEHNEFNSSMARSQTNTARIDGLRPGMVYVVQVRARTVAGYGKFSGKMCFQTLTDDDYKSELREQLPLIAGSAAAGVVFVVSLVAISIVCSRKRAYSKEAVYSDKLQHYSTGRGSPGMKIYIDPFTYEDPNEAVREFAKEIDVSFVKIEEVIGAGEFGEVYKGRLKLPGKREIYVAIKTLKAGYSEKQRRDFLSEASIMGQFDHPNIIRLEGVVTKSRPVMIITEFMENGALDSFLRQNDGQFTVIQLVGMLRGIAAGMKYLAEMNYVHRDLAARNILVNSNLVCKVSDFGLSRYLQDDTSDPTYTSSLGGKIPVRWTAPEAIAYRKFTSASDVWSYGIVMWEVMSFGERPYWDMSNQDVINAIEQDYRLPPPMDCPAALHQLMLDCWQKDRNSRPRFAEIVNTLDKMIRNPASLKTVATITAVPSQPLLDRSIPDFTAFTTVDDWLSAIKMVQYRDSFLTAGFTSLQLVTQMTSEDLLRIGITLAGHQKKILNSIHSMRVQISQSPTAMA

BRK(h) = BRK(h) (Homo sapiens, UniProt Q13882)
Haspin(h) = biological target: T2, Haspin(h) (Homo sapiens, UniProt Q8TF76)
T2 sequence (Q8TF76 1-798): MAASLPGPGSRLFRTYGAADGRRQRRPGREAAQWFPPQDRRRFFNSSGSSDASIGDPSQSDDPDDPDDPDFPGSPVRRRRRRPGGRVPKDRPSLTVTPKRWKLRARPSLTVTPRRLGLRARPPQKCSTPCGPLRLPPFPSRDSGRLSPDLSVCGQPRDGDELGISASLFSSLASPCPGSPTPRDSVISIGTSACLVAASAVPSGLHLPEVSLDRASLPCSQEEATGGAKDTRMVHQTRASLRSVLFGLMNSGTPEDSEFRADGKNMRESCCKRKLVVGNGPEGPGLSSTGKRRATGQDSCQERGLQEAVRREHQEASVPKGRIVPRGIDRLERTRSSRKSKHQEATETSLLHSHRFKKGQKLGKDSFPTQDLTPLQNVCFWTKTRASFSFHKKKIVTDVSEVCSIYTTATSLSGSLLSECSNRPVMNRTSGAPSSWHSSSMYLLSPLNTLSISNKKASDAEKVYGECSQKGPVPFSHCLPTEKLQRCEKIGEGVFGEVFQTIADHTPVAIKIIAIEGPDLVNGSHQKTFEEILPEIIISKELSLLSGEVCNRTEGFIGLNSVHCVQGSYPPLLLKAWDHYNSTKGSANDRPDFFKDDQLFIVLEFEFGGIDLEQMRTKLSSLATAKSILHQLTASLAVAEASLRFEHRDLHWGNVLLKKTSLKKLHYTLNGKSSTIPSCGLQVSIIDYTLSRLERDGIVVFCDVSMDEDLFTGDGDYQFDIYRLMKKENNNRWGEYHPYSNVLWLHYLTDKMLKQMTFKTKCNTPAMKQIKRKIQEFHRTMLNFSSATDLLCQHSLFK

MAPKAP-K2(h) = MAPKAP-K2(h) (Homo sapiens, UniProt P49137)
Itk(h) = biological target: T3, Itk(h) (Homo sapiens, UniProt Q08881)
T3 sequence (Q08881 1-620): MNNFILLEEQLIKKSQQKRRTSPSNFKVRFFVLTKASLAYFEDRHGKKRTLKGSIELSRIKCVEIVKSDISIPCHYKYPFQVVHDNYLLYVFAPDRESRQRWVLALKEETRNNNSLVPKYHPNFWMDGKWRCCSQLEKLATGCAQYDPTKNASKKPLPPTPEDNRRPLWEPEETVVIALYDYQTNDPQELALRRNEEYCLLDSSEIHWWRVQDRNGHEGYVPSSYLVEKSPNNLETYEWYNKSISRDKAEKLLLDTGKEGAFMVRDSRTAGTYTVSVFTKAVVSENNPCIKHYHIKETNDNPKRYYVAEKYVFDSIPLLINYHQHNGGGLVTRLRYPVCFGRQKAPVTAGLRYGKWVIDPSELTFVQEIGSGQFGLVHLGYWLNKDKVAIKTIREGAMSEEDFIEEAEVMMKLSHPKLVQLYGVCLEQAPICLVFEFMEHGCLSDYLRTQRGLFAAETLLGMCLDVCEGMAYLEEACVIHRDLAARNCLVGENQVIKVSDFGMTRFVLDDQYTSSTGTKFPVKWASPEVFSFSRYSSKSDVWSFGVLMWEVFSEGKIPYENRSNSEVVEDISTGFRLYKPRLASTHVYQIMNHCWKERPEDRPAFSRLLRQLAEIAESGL

Tie2(Y897S)(h) = Tie2(Y897S)(h) (Homo sapiens, UniProt Q02763, Y897S)
Ret(h) = Ret(h) (Homo sapiens, UniProt P07949)
EphA5(h) = EphA5(h) (Homo sapiens, UniProt P54756)
Sequence of EphA5(h) (P54756 25-1037): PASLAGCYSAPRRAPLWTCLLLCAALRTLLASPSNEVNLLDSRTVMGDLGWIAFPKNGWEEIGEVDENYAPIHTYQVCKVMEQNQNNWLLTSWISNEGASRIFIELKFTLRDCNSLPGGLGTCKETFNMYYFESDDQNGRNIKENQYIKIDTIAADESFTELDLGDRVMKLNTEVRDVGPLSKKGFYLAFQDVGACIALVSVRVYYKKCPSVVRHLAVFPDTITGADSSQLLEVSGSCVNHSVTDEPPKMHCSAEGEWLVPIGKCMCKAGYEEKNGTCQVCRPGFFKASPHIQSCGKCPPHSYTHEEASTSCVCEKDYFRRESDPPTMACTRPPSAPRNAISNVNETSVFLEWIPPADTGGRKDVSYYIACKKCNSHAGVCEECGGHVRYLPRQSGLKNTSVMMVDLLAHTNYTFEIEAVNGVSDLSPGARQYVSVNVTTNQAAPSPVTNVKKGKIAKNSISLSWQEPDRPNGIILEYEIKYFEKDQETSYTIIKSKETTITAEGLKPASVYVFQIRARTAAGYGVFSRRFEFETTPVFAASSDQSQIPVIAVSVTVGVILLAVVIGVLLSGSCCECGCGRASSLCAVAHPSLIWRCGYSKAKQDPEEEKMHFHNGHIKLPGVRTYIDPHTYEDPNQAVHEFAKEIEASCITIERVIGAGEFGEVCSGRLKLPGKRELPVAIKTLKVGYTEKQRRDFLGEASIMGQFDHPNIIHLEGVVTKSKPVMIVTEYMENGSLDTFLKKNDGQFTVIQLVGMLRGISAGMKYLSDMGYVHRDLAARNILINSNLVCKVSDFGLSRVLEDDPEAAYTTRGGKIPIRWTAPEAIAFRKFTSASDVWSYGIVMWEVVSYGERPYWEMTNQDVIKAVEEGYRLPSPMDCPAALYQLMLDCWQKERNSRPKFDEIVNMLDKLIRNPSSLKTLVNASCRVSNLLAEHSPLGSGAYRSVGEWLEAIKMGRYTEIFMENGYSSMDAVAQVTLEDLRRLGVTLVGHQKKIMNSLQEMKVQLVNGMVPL

Sequence of MAPKAP-K2(h) (P49137 whole entry): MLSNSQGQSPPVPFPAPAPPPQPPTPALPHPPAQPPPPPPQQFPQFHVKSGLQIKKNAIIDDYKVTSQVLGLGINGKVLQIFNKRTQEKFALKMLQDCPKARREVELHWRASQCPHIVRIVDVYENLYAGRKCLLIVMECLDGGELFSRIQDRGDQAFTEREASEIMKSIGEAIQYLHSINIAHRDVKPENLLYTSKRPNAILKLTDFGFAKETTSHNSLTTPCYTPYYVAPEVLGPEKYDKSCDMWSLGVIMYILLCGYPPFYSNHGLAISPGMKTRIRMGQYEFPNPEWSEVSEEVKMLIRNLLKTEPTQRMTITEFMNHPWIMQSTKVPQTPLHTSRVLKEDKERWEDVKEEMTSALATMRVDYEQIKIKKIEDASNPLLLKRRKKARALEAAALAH
Sequence of Tie2(Y897S)(h) (Q02763 23-1124 Y897S): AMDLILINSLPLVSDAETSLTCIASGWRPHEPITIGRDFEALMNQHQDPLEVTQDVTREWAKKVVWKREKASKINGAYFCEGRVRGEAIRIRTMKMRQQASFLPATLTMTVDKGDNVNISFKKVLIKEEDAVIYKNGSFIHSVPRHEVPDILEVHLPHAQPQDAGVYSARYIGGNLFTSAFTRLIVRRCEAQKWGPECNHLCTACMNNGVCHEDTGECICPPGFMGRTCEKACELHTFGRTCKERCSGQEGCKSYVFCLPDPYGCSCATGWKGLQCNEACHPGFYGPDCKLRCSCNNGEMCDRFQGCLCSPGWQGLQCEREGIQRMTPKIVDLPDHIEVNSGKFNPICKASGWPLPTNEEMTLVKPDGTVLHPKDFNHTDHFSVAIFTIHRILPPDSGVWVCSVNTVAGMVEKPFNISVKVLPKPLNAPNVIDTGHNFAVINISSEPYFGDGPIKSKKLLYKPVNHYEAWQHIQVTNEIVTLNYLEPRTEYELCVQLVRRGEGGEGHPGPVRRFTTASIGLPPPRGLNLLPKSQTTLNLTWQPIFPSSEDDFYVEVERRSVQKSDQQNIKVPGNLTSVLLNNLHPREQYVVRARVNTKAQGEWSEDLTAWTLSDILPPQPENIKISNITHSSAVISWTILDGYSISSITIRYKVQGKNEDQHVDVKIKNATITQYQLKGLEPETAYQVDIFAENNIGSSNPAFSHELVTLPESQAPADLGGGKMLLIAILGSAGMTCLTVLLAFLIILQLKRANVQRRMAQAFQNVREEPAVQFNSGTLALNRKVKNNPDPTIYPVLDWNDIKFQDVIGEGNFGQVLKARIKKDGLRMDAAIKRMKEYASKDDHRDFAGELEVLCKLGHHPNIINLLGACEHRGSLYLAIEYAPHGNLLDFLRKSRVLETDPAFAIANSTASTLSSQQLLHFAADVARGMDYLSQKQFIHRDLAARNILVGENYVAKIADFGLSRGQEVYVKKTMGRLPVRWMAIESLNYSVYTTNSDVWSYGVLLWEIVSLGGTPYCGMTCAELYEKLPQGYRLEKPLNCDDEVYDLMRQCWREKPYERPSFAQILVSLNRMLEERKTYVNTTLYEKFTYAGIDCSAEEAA
Sequence of BRK(h) (Q13882 whole entry): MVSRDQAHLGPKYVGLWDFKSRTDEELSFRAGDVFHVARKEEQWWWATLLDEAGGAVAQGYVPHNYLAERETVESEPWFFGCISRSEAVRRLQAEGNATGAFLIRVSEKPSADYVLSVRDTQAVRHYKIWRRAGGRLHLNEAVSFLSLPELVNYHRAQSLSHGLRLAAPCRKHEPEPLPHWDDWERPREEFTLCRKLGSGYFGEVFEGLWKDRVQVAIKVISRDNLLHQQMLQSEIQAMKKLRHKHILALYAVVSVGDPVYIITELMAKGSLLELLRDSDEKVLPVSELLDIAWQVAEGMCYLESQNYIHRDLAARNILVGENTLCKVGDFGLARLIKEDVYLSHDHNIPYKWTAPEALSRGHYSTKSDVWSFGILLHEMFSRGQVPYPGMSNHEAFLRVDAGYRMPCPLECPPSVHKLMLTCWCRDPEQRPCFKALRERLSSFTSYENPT

H-YARAAARQARAKALARQLGVAA-OH [MMI-0100]
activity at 100 µM (Ab1(T315I)(h)): 98% | activity at 100 µM (Met(Y1248D)(h)): 87% | activity at 100 µM (EphB1(h)): 99% | activity at 100 µM (BRK(h)): 70% | activity at 100 µM (Haspin(h)): 127% | activity at 100 µM (MAPKAP-K2(h)): 19% | activity at 100 µM (Itk(h)): 99% | activity at 100 µM (Tie2(Y897S)(h)): 99% | activity at 100 µM (Ret(h)): 108% | activity at 100 µM (EphA5(h)): 110%

HRRIKAWLKKIKALARQLGVAA (Mammalian) [MMI-0500]
% activity (Ab1(T315I)(h)): 16% | % activity (Met(Y1248D)(h)): 218% | % activity (EphB1(h)): 37% | % activity (BRK(h)): 41% | % activity (Haspin(h)): 25% | % activity (MAPKAP-K2(h)): 9% | % activity (Itk(h)): 7% | % activity (Tie2(Y897S)(h)): 80% | % activity (Ret(h)): 174% | % activity (EphA5(h)): 42%

YARAAARQARAKALNRQLGVA (Mammalian) [MMI-0200]
% activity (Ab1(T315I)(h)): 108% | % activity (Met(Y1248D)(h)): 118% | % activity (EphB1(h)): 95% | % activity (BRK(h)): 127% | % activity (Haspin(h)): 71% | % activity (MAPKAP-K2(h)): 35% | % activity (Itk(h)): 98% | % activity (Tie2(Y897S)(h)): 85% | % activity (Ret(h)): 96% | % activity (EphA5(h)): 123%
